Reference: PMC7966797, “A cold shock protein promotes high-temperature microbial growth through binding to diverse RNA species”

Key:
CspL [1] = biological target: T1, CspL (Bacillus coagulans 2-6, UniProt A0A0C5C4D7 1-67); assay: BLI; BLI, streptavidin sensor with 5'-biotin oligo; 20 mM PBS pH 7.4, 100 mM NaCl, 0.1% BSA, 0.02% Tween 20; CspL 20 ug/ml; temperature not in the material; conditions: protein: recombinant, tags: His, label: 5'-biotin
CspL [2] = biological target: T1, CspL; assay: BLI; 2100, 210 nM CspL; binding lost at 21 nM; BLI, streptavidin sensor with 5'-biotin oligo; 20 mM PBS pH 7.4, 100 mM NaCl, 0.1% BSA, 0.02% Tween 20; CspL 20 ug/ml; temperature not in the material; conditions: protein: recombinant; tags: His; label: 5'-biotin

Binder	binding result (CspL [1])	binding result (CspL [1]; blunt)	other results
CCGCAGATCCAGACGAGAGC (ssDNA) [ssDNA random]	binds		
dsDNA random (dsDNA) DNA 1: CCGCAGATCCAGACGAGAGC DNA 2: GCTCTCGTCTGGATCTGCGG		no binding	
GAGACCGGAATTCGAGCT (ssDNA) [18 nt ssDNA (ssDNA 5)]			binding result (CspL [2]): binds
dsDNA gaaC (dsDNA) DNA 1: CCGCAGAGAACGACGAGAGC DNA 2: GCTCTCGTCGTTCTCTGCGG		no binding	
CCGCAGAGAACGACGAGAGC (ssDNA) [ssDNA gaaC]	binds		
